# Assay results as given in patent US6566505 (THOMAS JEFFERSON UNIVERSITY, dated 2003).
# Ends that are not written are not given here.
# T1: bacterially expressed recombinant Mch6 (6His-C terminal tagged protein) (human, UniProt P55211 1-416)
# T1 construct: also called purified Mch6 protein; mammalian ced-3 homolog 6; not shown: C-terminal 6His tag from vector pET21b
# T1 chain: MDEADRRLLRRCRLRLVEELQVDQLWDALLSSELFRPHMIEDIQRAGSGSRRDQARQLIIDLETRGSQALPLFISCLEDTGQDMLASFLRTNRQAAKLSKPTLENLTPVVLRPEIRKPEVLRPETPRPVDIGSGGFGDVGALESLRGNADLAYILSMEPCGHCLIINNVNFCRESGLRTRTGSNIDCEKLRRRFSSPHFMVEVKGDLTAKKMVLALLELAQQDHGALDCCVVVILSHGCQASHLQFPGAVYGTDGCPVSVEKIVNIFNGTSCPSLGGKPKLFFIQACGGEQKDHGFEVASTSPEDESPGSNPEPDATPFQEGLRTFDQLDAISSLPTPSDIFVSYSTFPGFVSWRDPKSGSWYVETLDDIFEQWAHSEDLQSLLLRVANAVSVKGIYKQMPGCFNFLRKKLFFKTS
# T2: DEVD-AMC (Asp-Glu-Val-Asp-aminomethylcoumarin)
# T2 chain: DEVD
# T3: YVAD-AMC (Tyr-Val-Ala-Asp-aminomethylcoumarin)
# T3 chain: YVAD
# T4: ZEVD-AMC (carbobenzoxy-Glu-Val-Asp-aminomethylcoumarin)
# T4 chain: EVD
# T5: wild type proMch6 (35S-labeled, in vitro translated)
# T5 chain: T1 chain
# B1: DEVD-CHO (Asp-Glu-Val-Asp-aldehyde) (peptide)
# peptide: DEVD-aldehyde
# notes: Tetrapeptide aldehyde substrate analog; also called DEVD-CHO peptide
# B2: bacterially expressed recombinant Mch6 (6His-C terminal tagged protein) (protein)
# chain: T1 chain
# B3: purified recombinant human CPP32 (protein)
# chain: SGISLDNSYKMDYPEMGLCIIINNKNFHKSTGMTSRSGTDVDAANLRETFRNLKYEVRNKNDLTREEIVELMRDVSKEDHSKRSSFVCVLLSHGEEGIIFGTNGPVDLKKITNFFRGDRCRSLTGKPKLFIIQACRGTELDCGIETDSGVDDDMACHKIPVEADFLYAYSTAPGYYSWRNSKDGSWFIQSLCAMLKQYADKLEFMHILTRVNRKVATEFESFSFDATFHAKKQIPCIVSMLTKELYFYH
# How the values were obtained:
# [1] = target: T1, bacterially expressed recombinant Mch6 …; assay: inhibition of the hydrolysis of 50 µM DEVD-AMC by recombinant Mch6 after 30 min preincubation with DEVD-CHO, continuous fluorometric assay
# Protocol: The purified Mch6 protein was then used for further enzymatic analyses. The activity of Mch6 was measured using bacterial lysates prepared with ICE buffer (25 mM HEPES, 1 mM EDTA, 5mM DTT, 0.1% CHAPS, 10% sucrose, pH 7.5) at room temperature (24–25° C.).
# [2] = target: T2, DEVD-AMC …
# [3] = target: T3, YVAD-AMC …
# [4] = target: T4, ZEVD-AMC …
# [5] = target: T5, wild type proMch6 (35S-labeled, in …)
binder,measurement,setting,value
B1,Ki,[1],< 10 nM
B2,Km (DEVD-AMC),[2],10 µM
same,Vmax/Km (DEVD-AMC),[2],100
same,Vmax/Km (YVAD-AMC),[3],< 0.1
same,Vmax/Km (ZEVD-AMC),[4],2.7
B3,processing of 35S-labeled proMch6 (Tricine-SDS-PAGE and autoradiography),[5],CPP32 cleaves proMch6 at one site to generate two cleavage products of approximately 37 kDa or p37 and approximately 10 kDa or p10
